Patent US20060204979A1 (INVITROGEN, published 2006)

Experiments:
[1] = target: T1, Krev1 (full-length ORF) expressed from pEXP32/Krev1 as GAL4 DBD fusion (rat, UniProt P04386 1-147; P62836 1-184); experiment: cell-based or functional assay
[2] = target: T1, Krev1 (full-length ORF) expressed from …; experiment: yeast two-hybrid; no growth under histidine selection with 10 mM 3-AT, no URA3 activation
Protocol: To confirm the initial mutant phenotypes, plasmid DNA from the 17 mutant alleles and 6 wild type clones was co-transformed into MaV203 with pEXP32-Krev1. Transformants were tested for their ability to activate the URA3 reporter, as well as the HIS3 reporter in the presence of 10 mM, 25 mM, 50 mM or 100 mM 3-AT. All six wild type clones (7, 9, 11, 12, 20 and 21) produced strong URA⁺ and HIS3/100 mM 3-AT⁺ phenotypes, except clone 20. […] Clone 4 (I77T) and 23 (M50V) were the only mutants displaying a strong growth phenotype in the presence of 100 mM 3-AT.

[3] = target: T1, Krev1 (full-length ORF) expressed from …; experiment: yeast two-hybrid (ProQuest)
[4] = target: T1, Krev1 (full-length ORF) expressed from …; experiment: yeast two-hybrid negative control, HIS3/3-AT reporter
Protocol: Yeast transformations were performed according to MaV203 competent yeast cell protocol (Invitrogen, Carlsbad, Calif.) using Gateway destination vectors pDEST32 and pDEST 22 (Invitrogen.com). Briefly, 25 μl cells are mixed with 1 μg bait construct (pEXP32-Bait ORF) and 1 μg prey allele library (EXP22-Prey allele library). pEXP32 is an expression construct in which a partner sequence (“bait”) is fused to the GAL4 DBD. pEXP22 is an expression construct in which a target sequence (“prey”) is fused to the GAL4 AD. Next, 180 μl LiAc/PEG solution is added and tube is inverted several times to mix. Incubate at 30° C. for 30 min, add 10 μl DMSO and heat shock at 42° C. for 10 min. Spin down cells at 1800 rpm, resuspend in 1 ml dH2O, serial dilute to 10⁻². Plate 100 μl of dilutions 10⁻¹ and 10⁻² on CSM-LW, and 100 μl undiluted and dilution 10⁻¹ on CSM-LW+5-FOA. Incubate plates at 30° C. for 3-5 five days. Patch colonies from CSM-LW+5-FOA onto CSM-LW (along with positive and negative control patches) and incubate at 30° C. for 2 days. Replica plate onto CSM-LW and CSM-LWH+3-AT (10 mM, 25 mM, 50 mM and 100 mM). […]
In creating the allele library for RalGDS, it was calculated using the guidelines in Materials and Methods that 200,000 individual Kan⁺ clones was sufficient to provide good library representation for the 296 bp ORF. […]

Binder | 3-AT Phenotype (concentration of 3-AT required to inhibit growth under histidine selection, HIS3 reporter) [1] [mM] | binding result [2] | binding result [3] | binding result [4]
RalGDS RA allele 16, R20M (other, not shown: small tags and cut ends) YNQQVGDCCIIMVSLDVDNGNMYKSILVTSQDKAPTVIRKAMDKHNLDEDEPEDYELLQIISEDHKLKIPENANVFYAMNSAANYDFILKKR | 50 |  |  | 
RalGDS RA allele 23, M50V (other, not shown: small tags and cut ends) YNQQVGDCCIIRVSLDVDNGNMYKSILVTSQDKAPTVIRKAVDKHNLDEDEPEDYELLQIISEDHKLKIPENANVFYAMNSAANYDFILKKR | > 100 |  |  | 
RalGDS RA alleles 3, 8, 27, 30, 35 and 36, L65P (other, not shown: small tags and cut ends, Six clones with the same amino acid change; also called clone 3; clone 8) YNQQVGDCCIIRVSLDVDNGNMYKSILVTSQDKAPTVIRKAMDKHNLDEDEPEDYEPLQIISEDHKLKIPENANVFYAMNSAANYDFILKKR | 10 | no binding |  | 
RalGDS RA allele 4, I77T (other, not shown: small tags and cut ends) YNQQVGDCCIIRVSLDVDNGNMYKSILVTSQDKAPTVIRKAMDKHNLDEDEPEDYELLQIISEDHKLKTPENANVFYAMNSAANYDFILKKR | > 100 |  |  | 
RalGDS RA allele 2, L66P (other, not shown: small tags and cut ends, also called clone 2) YNQQVGDCCIIRVSLDVDNGNMYKSILVTSQDKAPTVIRKAMDKHNLDEDEPEDYELPQIISEDHKLKIPENANVFYAMNSAANYDFILKKR | 10 | no binding |  | 
RalGDS RA alleles 6 and 15, K52E (other, not shown: small tags and cut ends, also called clone 6 (RalGDS screen); clone 15) YNQQVGDCCIIRVSLDVDNGNMYKSILVTSQDKAPTVIRKAMDEHNLDEDEPEDYELLQIISEDHKLKIPENANVFYAMNSAANYDFILKKR | 10 | no binding |  | 
RalGDS RA alleles 17 and 19, Y31C (other, not shown: small tags and cut ends, also called clone 17; clone 19) YNQQVGDCCIIRVSLDVDNGNMCKSILVTSQDKAPTVIRKAMDKHNLDEDEPEDYELLQIISEDHKLKIPENANVFYAMNSAANYDFILKKR | 10 | no binding |  | 
RalGDS RA allele 22, Q67R (other, not shown: small tags and cut ends) YNQQVGDCCIIRVSLDVDNGNMYKSILVTSQDKAPTVIRKAMDKHNLDEDEPEDYELLRIISEDHKLKIPENANVFYAMNSAANYDFILKKR | 100 |  |  | 
RalGDS ras association (RA) domain expressed from pEXP22/RalGDS as GAL4 AD fusion (other, UniProt Q03386 767-864, looked up, not shown: large carriers, domain: ras association domain; Prey; also called RalGDS wild type) SSSLPLYNQQVGDCCIIRVSLDVDNGNMYKSILVTSQDKAPTVIRKAMDKHNLDEDEPEDYELLQIISEDHKLKIPENANVFYAMNSAANYDFILKKR |  |  | binds | 
Fos (leucine zipper region), negative control prey with Krev1 (other, UniProt P01100 132-211, looked up, not shown: large carriers, domain: leucine zipper region; the only Fos ORF it describes is the leucine zipper region) LSPEEEEKRRIRRERNKMAAAKCRNRRRELTDTLQAETDQLEDEKSALQTEIANLLKEKEKLEFILAAHRPACKIPDDLG |  |  |  | no binding
